Measurements reported in the supplement of paper PMC10567573.

B1: EPB41L3 (parent)
chain: GSKFRYSGRTQAQTRRASALIDRP

Variants of: B1
Assay: protein stability index of a GFP-peptide fusion (GPS, HEK-293T) (PSI 1-6); higher = more stable
Details: c terminus: a fixed tail appended
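Also: lentivirally expressed fusions sorted by FACS into six bins by GFP to DsRed ratio, PSI derived from sequencing read proportions per bin multiplied by bin number.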

| Variant | protein stability index |
| --- | --- |
| GSKFGYSGRTQAQTRRASALIDRP | 3.8 |
| GSKFIYSGRTQAQTRRASALIDRP | 3.07 |
| GSKFEYSGRTQAQTRRASALIDRP | 4.08 |
| GSKFAYSGRTQAQTRRASALIDRP | 3.49 |
| GSKFPYSGRTQAQTRRASALIDRP | 3.27 |
| GSKFLYSGRTQAQTRRASALIDRP | 2.71 |
| GSKFRYSGRTQAQTRRASALIDSP | 3.01 |
| GSKFRYSGRTQAQTRRASALIDWP | 2.77 |
| GSKFRYSGRTQAQTRRASALIDDP | 3.44 |
| GSKFRYSGRTQAQTRRASALIDLP | 2.71 |
| GSKFRYSGRTQAQTRRASALIDIP | 2.11 |
| GSKFRYSGRTQAQTRRASALIDVP | 2.67 |
| GSKFRYSGRTQAQTRRASALIDNP | 2.67 |
| GSKFRYSGRTQAQTRRASALIDQP | 3.12 |
| GSKFRYSGRTQAQTRRASALIDEP | 3.32 |
| GSKFRTSGRTQAQTRRASALIDRP | 4.35 |
| GSKFRESGRTQAQTRRASALIDRP | 4.13 |
| GSKFRRSGRTQAQTRRASALIDRP | 4.23 |
| GSKFRCSGRTQAQTRRASALIDRP | 3.51 |
| GSKFRSSGRTQAQTRRASALIDRP | 3.85 |
| GSKFRKSGRTQAQTRRASALIDRP | 4.13 |
| GSKFRHSGRTQAQTRRASALIDRP | 3.22 |
| GSKFRYSGRTQAQTRRAMALIDRP | 2.71 |
| GSKFRYSGRTQAQTRRAEALIDRP | 3.62 |

| Variant | protein stability index |
| --- | --- |
| GSKFRYSGRTQAQTRRADALIDRP | 3.52 |
| GSKFRYSGRTQAQTRRARALIDRP | 3.08 |
| GSKFRYSGRTQAQTRRAGALIDRP | 3.54 |
| GSKFRYSGRTQAQTRRANALIDRP | 3.25 |
| GSKFRYSGRTQAQTRRACALIDRP | 2.5 |
| GSKFRYSGRTQAQTRRAWALIDRP | 2.58 |
| GSKFRYSGRTQAQTRRAYALIDRP | 2.27 |
| GSKFRYSGRTQAQTRRAHALIDRP | 3.42 |
| GSKFRYSGRTQAQTRRASRLIDRP | 3.43 |
| GSKFRYSGRTQAQTRRASLLIDRP | 3.12 |
| GSKFRYSGRTQAQTRRASNLIDRP | 3.4 |
| GSKFRYSGRTQAQTRRASELIDRP | 3.28 |
| GSKFRYSGRTQAQTRRASILIDRP | 3.04 |
| GSKFRYSGRTQAQTRRASYLIDRP | 2.07 |
| GSKFRYSGRTQAQTRRASVLIDRP | 2.42 |
| GSKFRYSGRTQAQTRRASSLIDRP | 3.41 |
| GSKFRYSGRTQAQTRSASALIDRP | 3.08 |
| GSKFRYSGRTQAQTRLASALIDRP | 3.11 |
| GSKFRYSGRTQAQTRYASALIDRP | 2.78 |
| GSKFRYSGRTQAQTRQASALIDRP | 3.31 |
| GSKFRYSGRTQAQTRHASALIDRP | 3.32 |
| GSKFRYSGRTQAQTREASALIDRP | 3.34 |
| GSKFRYSGRTQAQTRRASANIDRP | 3.78 |
| GSKFRYSGRTQAQTRRASAPIDRP | 3.15 |

| Variant | protein stability index |
| --- | --- |
| GSKFRYSGRTQAQTRRASAVIDRP | 3.52 |
| GSKFRYSGRTQAQTRRASAFIDRP | 2.65 |
| GSKFRYSGRTQAQTRRASAIIDRP | 3.19 |
| GSKFRYSGRTQAQTRRASAGIDRP | 3.16 |
| GSKFRYSGRTQAQTRRASAMIDRP | 3.59 |
| GSKFRYSGRTQAQTRRASATIDRP | 3.62 |
| GSKFRYSGRTQAQTRRASAAIDRP | 3.29 |
| GSKFRYSGRTQAQTRRASASIDRP | 3.46 |
| GSKFRYSGRTQAQTRRASADIDRP | 3.84 |
| GSKFRYSGRTAAQTRRASALIDRP | 2.86 |
| GSKFRYSGRTGAQTRRASALIDRP | 3.16 |
| GSKFRYSGRTVAQTRRASALIDRP | 2.78 |
| GSKFRYSGRTNAQTRRASALIDRP | 3 |
| GSKFRYSGRTRAQTRRASALIDRP | 3.78 |
| GSKFRYSGRTSAQTRRASALIDRP | 2.18 |
| GSKFRYSGRTYAQTRRASALIDRP | 2.64 |
| GSKFRYSGRTLAQTRRASALIDRP | 2.5 |
| GSKFRYSGRTTAQTRRASALIDRP | 2.57 |
| GSKFRYSGRTQDQTRRASALIDRP | 3.37 |
| GSKFRYSGRTQWQTRRASALIDRP | 2.25 |
| GSKFRYSGRTQLQTRRASALIDRP | 3.38 |
| GSKFRYSGRTQQQTRRASALIDRP | 3.06 |
| GSKFRYSGRTQTQTRRASALIDRP | 2.93 |
| GSKFRYSGRTQVQTRRASALIDRP | 1.93 |

| Variant | protein stability index |
| --- | --- |
| GSKFRYSGRTQRQTRRASALIDRP | 3.42 |
| GSKFRYSGRTQKQTRRASALIDRP | 3.15 |
| GSKFRYSGDTQAQTRRASALIDRP | 3.52 |
| GSKFRYSGFTQAQTRRASALIDRP | 2.81 |
| GSKFRYSGVTQAQTRRASALIDRP | 2.85 |
| GSKFRYSGYTQAQTRRASALIDRP | 2.4 |
| GSKFRYSGHTQAQTRRASALIDRP | 2.93 |
| GSKFRYSGKTQAQTRRASALIDRP | 2.97 |
| GSKFRYSGQTQAQTRRASALIDRP | 3.32 |
| GSKFRYSGNTQAQTRRASALIDRP | 3.7 |
| GSKFRYSGSTQAQTRRASALIDRP | 3.44 |
| GSKFRYSGATQAQTRRASALIDRP | 2.88 |
| GSKFRYSGRTQAQTRRNSALIDRP | 3.19 |
| GSKFRYSGRTQAQTRRISALIDRP | 3.25 |
| GSKFRYSGRTQAQTRRFSALIDRP | 2.52 |
| GSKFRYSGRTQAQTRRPSALIDRP | 2.96 |
| GSKFRYSGRTQAQTRRCSALIDRP | 2.09 |
| GSKFRYSGRTQAQTRRTSALIDRP | 2.99 |
| GSKFRYSGRTQAQTRRSSALIDRP | 3.12 |
| GSKFRYSGRTQAQTRRASALIDRD | 3.56 |
| GSKFRYSGRTQAQTRRASALIDRT | 3.05 |
| GSKFRYSGRTQAQTRRASALIDRH | 3.47 |
| GSKFRYSGRTQAQTRRASALIDRE | 3.19 |
| GSKFRYSGRTQAQTRRASALIDRY | 2.78 |

| Variant | protein stability index |
| --- | --- |
| GSKFRYSGRTQAQTRRASALIDRI | 2.71 |
| GGKFRYSGRTQAQTRRASALIDRP | 3.31 |
| GLKFRYSGRTQAQTRRASALIDRP | 2.33 |
| GHKFRYSGRTQAQTRRASALIDRP | 2.98 |
| GWKFRYSGRTQAQTRRASALIDRP | 2.44 |
| GYKFRYSGRTQAQTRRASALIDRP | 2.68 |
| GMKFRYSGRTQAQTRRASALIDRP | 2.27 |
| GVKFRYSGRTQAQTRRASALIDRP | 2.5 |
| GRKFRYSGRTQAQTRRASALIDRP | 2.51 |
| GIKFRYSGRTQAQTRRASALIDRP | 2.74 |
| GTKFRYSGRTQAQTRRASALIDRP | 2.82 |
| GSKARYSGRTQAQTRRASALIDRP | 4.23 |
| GSKRRYSGRTQAQTRRASALIDRP | 4.42 |
| GSKWRYSGRTQAQTRRASALIDRP | 2.86 |
| GSKGRYSGRTQAQTRRASALIDRP | 3.62 |
| GSKNRYSGRTQAQTRRASALIDRP | 4.4 |
| GSKDRYSGRTQAQTRRASALIDRP | 4.17 |
| GSKQRYSGRTQAQTRRASALIDRP | 4.47 |
| GSKFRYSGRTQAQTWRASALIDRP | 2.45 |
| GSKFRYSGRTQAQTYRASALIDRP | 2.54 |
| GSKFRYSGRTQAQTCRASALIDRP | 2.06 |
| GSKFRYSGRTQAQTERASALIDRP | 3.57 |
| GSKFRYSGRTQAQTARASALIDRP | 3.25 |
| GSKFRYSGRTQAQTQRASALIDRP | 2.9 |

| Variant | protein stability index |
| --- | --- |
| GSKFRYSGRTQAQTTRASALIDRP | 3.58 |
| GSKFRYSGRTQAQTDRASALIDRP | 3.2 |
| GSKFRYSGRTQAQTVRASALIDRP | 2.99 |
| GSKFRYSGRTQAQTNRASALIDRP | 3.68 |
| GSKFRYSGRTQAQTMRASALIDRP | 3.21 |
| GSTFRYSGRTQAQTRRASALIDRP | 2.74 |
| GSFFRYSGRTQAQTRRASALIDRP | 2.34 |
| GSYFRYSGRTQAQTRRASALIDRP | 1.89 |
| GSGFRYSGRTQAQTRRASALIDRP | 1.94 |
| GSIFRYSGRTQAQTRRASALIDRP | 2.67 |
| GSKFRYSRRTQAQTRRASALIDRP | 4.01 |
| GSKFRYSKRTQAQTRRASALIDRP | 3.44 |
| GSKFRYSIRTQAQTRRASALIDRP | 2.93 |
| GSKFRYSNRTQAQTRRASALIDRP | 3.13 |
| GSKFRYSHRTQAQTRRASALIDRP | 2.95 |
| GSKFRYSGRTQAQTRRASALIRRP | 3.45 |
| GSKFRYSGRTQAQTRRASALIGRP | 2.67 |
| GSKFRYSGRTQAQTRRASALILRP | 2.99 |
| GSKFRYSGRTQAQTRRASALIERP | 3.72 |
| GSKFRYSGRTQAQTRRASALIYRP | 2.29 |
| GSKFRYSGRTQAQTRRASALINRP | 2.82 |
| GSKFRYSGRTQAQTRRASALIARP | 2.63 |
| FSKFRYSGRTQAQTRRASALIDRP | 2.12 |
| DSKFRYSGRTQAQTRRASALIDRP | 3.06 |

| Variant | protein stability index |
| --- | --- |
| SSKFRYSGRTQAQTRRASALIDRP | 2.33 |
| ASKFRYSGRTQAQTRRASALIDRP | 3.02 |
| QSKFRYSGRTQAQTRRASALIDRP | 2.74 |
| NSKFRYSGRTQAQTRRASALIDRP | 3.34 |
| ESKFRYSGRTQAQTRRASALIDRP | 3.62 |
| PSKFRYSGRTQAQTRRASALIDRP | 2.99 |
| GSKFRYYGRTQAQTRRASALIDRP | 2.71 |
| GSKFRYVGRTQAQTRRASALIDRP | 2.15 |
| GSKFRYGGRTQAQTRRASALIDRP | 3.85 |
| GSKFRYWGRTQAQTRRASALIDRP | 2.4 |
| GSKFRYEGRTQAQTRRASALIDRP | 3.63 |
| GSKFRYQGRTQAQTRRASALIDRP | 2.86 |
| GSKFRYLGRTQAQTRRASALIDRP | 3.08 |
| GSKFRYSGRTQAITRRASALIDRP | 2.9 |
| GSKFRYSGRTQAATRRASALIDRP | 2.84 |
| GSKFRYSGRTQAKTRRASALIDRP | 3.19 |
| GSKFRYSGRTQAYTRRASALIDRP | 2.46 |
| GSKFRYSGRTQAWTRRASALIDRP | 1.97 |
| GSKFRYSGRRQAQTRRASALIDRP | 3.62 |
| GSKFRYSGREQAQTRRASALIDRP | 3.01 |
| GSKFRYSGRLQAQTRRASALIDRP | 3.1 |
| GSKFRYSGRYQAQTRRASALIDRP | 2.39 |
| GSKFRYSGRWQAQTRRASALIDRP | 1.82 |
| GSKFRYSGRHQAQTRRASALIDRP | 3.27 |

| Variant | protein stability index |
| --- | --- |
| GSKFRYSGRKQAQTRRASALIDRP | 3.89 |
| GSKFRYSGRAQAQTRRASALIDRP | 2.97 |
| GSKFRYSGRMQAQTRRASALIDRP | 2.39 |
| GSKFRYSGRSQAQTRRASALIDRP | 2.83 |
| GSKFRYSGRTQAQERRASALIDRP | 3.21 |
| GSKFRYSGRTQAQRRRASALIDRP | 3.44 |
| GSKFRYSGRTQAQNRRASALIDRP | 3.72 |
| GSKFRYSGRTQAQFRRASALIDRP | 2.8 |
| GSKFRYSGRTQAQVRRASALIDRP | 3.19 |
| GSKFRYSGRTQAQKRRASALIDRP | 3.44 |
| GSKFRYSGRTQAQPRRASALIDRP | 2.62 |
| GSKFRYSGRTQAQCRRASALIDRP | 1.88 |
| GSKFRYSGRTQAQMRRASALIDRP | 2.29 |
| GSKFRYSGRTQAQTRRASALDDRP | 3.58 |
| GSKFRYSGRTQAQTRRASALVDRP | 3.2 |
| GSKFRYSGRTQAQTRRASALNDRP | 3.95 |
| GSKFRYSGRTQAQTRRASALLDRP | 3.17 |
| GSKFRYSGRTQAQTRRASALKDRP | 3.48 |
| GSKFRYSGRTQAQTRRASALWDRP | 2.4 |
| GSKFRYSGRTQAQTRRASALCDRP | 2.64 |
